6 molecules from US20120231006A1 (Amgen, published 2012) can be followed below.

Some results are limits rather than exact numbers.

The target of test [1] is T1, human Orai1 (human, UniProt Q96D31 1-301). Kind of test: cell-based or functional assay.
The target of test [2] is T2, hOrai1-mOrai1 ECL2 chimeric protein (human/mouse chimera, UniProt Q96D31 1-301).
T2 construct: human Orai1 with mouse ECL2; also called Ch
Kind of test: FACS, 293EBNA. The arrangement: concentration or dose not given beside the values. The protocol:
(§1) FACS binding analysis. Transfected 293EBNA cells transiently expressed hOrai1-mOrai1 ECL2 or mOrai1-hOrai1 ECL2 chimera. The transfected cells were harvested at 48 hours post-transfection. Cells transfected with pcDNA3.1 were used as negative controls. Cells were washed once with ice-cold 1×PBS, resuspended in ice-cold FACS buffer (1×D-PBS+2% goat serum), and 2×10⁵ cells in 100 μL were stained per antibody combination. All antibody incubation steps were performed on ice for 1 hour. […] Next, the unlabelled antibody was detected using goat F(ab′)₂ anti-mouse or anti-human IgG-phycoerythrin (IgG-PE), followed by a wash with 200 μL of ice-cold FACS buffer before flow cytometry analysis. Unstained cells and cells stained with detecting antibodies were used as negative controls. The values of relative level of fluorescence were calculated using FCS Express (De Novo Software) and mean values were calculated using log-transformed data (geometric mean). The results of the FACS analysis are shown in FIG. 15A-B, which supports the conclusion that the hOrai1 ECL2 domain is the region of hOrai1 where antibodies of the present invention bind.
(§2) Representative results of FACS analysis of binding to the mutant hOrai1-mOrai1 ECL2 chimera described above by exemplary anti-hOrai1 antibodies of the present invention are shown in FIG. 17A-D, Table 10A and Table 10B below. Table 10A (Campaign 1) and Table 10B (Campaign 2) show the gain in binding ability of exemplary monoclonal antibodies to hOrai 1-mOrai 1 ECL2 chimera mutants as determined by FACS.

In test [3] the target is T3, hOrai1-mOrai1 ECL2 (…) protein (human/mouse chimera, UniProt Q96D31 1-301).
T3 construct: also called Ch
Description: FACS, 293EBNA. The arrangement: concentration or dose not given beside the values. As to the method: as §1, §2
T3 sequence (Q96D31 other isoform, or with tags, fused parts or gaps): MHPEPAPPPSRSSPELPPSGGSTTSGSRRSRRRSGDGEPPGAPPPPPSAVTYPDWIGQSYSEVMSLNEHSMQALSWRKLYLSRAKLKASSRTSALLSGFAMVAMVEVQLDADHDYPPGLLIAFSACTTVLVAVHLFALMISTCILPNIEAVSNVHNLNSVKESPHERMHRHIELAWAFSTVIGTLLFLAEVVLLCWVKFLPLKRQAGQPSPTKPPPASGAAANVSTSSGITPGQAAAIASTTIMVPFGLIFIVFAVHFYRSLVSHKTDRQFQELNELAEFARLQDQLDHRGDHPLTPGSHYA

For test [4], the target named is T4, hOrai1-mOrai1 ECL2 (PASGAA) protein (human/mouse chimera, UniProt Q96D31 1-301).
T4 construct: also called Ch
Description: FACS, 293EBNA. The arrangement: concentration or dose not given beside the values. The protocol:
as §1, §2
Background: A flow cytometer gives signals particle by particle.

Test [5] concerns the target T5, hOrai1-mOrai1 ECL2 (AANVST) protein (human/mouse chimera, UniProt Q96D31 1-301).
T5 construct: also called Ch
Kind of test: FACS, 293EBNA. The arrangement: concentration or dose not given beside the values. The protocol:
as §1, §2

The target of test [6] is T6, hOrai1-mOrai1 ECL2 (GAA) protein (human/mouse chimera, UniProt Q96D31 1-301).
T6 construct: also called Ch
Description: FACS, 293EBNA. The arrangement: concentration or dose not given beside the values. As to the method: as §1, §2

The target in test [7] is T7, hOrai1-mOrai1 ECL2 (VST) protein (human/mouse chimera, UniProt Q96D31 1-301).
T7 construct: also called Ch
Description: FACS, 293EBNA. The arrangement: concentration or dose not given beside the values. The protocol: as §1, §2

In test [8] the target is T1, human Orai1. Kind of test: cell-based or functional assay. This is another data set of the same source.
Test [9] addresses T8, hOrai1-mOrai1 ECL2 (SKPPA) protein (human/mouse chimera, UniProt Q96D31 1-301).
T8 construct: also called Ch
Description: FACS, 293EBNA, RFI-POC grade. The arrangement: concentration or dose not given beside the values.

Test [10] addresses T1, human Orai1. Kind of test: cell-based or functional assay. The source holds these as a separate data set.
The target in test [11] is T9, mOrai1-hOrai1 ECL2 chimeric protein (human/mouse chimera, UniProt Q8BWG9 1-304 (mouse entry)).
T9 construct: mouse Orai1 with human ECL2; also called Ch
Description: FACS, 293EBNA, RFI-POC grade. The arrangement: concentration or dose not given beside the values.

The target of test [12] is T10, hOrai1-mOrai1 ECL2 (…) protein (human/mouse chimera, UniProt Q96D31 1-301).
T10 construct: also called Ch
Description: FACS, 293EBNA, RFI-POC grade. The arrangement: concentration or dose not given beside the values.
T10 sequence (Q96D31 other isoform, or with tags, fused parts or gaps): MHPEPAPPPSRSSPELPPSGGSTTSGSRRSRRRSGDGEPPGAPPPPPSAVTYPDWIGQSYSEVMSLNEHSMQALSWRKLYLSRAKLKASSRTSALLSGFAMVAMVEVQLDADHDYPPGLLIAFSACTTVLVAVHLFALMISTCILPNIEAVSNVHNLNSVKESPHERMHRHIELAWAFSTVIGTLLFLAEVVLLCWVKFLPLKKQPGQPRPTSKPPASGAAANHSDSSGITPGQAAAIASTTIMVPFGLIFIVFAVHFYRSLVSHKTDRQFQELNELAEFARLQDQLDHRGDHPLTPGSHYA

In test [13] the target is T11, hOrai1-mOrai1 ECL2 (…) protein (human/mouse chimera, UniProt Q96D31 1-301).
T11 construct: also called Ch
Description: FACS, 293EBNA, RFI-POC grade. The arrangement: concentration or dose not given beside the values. This is another data set of the same source.
T11 sequence (Q96D31 other isoform, or with tags, fused parts or gaps): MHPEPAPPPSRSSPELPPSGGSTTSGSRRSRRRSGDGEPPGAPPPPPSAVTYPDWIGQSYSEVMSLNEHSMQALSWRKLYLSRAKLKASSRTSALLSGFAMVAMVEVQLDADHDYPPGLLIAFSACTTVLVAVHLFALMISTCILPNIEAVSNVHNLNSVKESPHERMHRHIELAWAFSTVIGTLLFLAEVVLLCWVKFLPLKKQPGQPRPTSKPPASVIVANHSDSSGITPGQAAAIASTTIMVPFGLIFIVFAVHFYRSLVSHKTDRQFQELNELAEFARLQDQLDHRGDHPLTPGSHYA

Test [14] addresses T12, hOrai1-mOrai1 ECL2 (…) protein (human/mouse chimera, UniProt Q96D31 1-301).
T12 construct: also called Ch
Kind of test: FACS, 293EBNA, RFI-POC grade. The arrangement: concentration or dose not given beside the values. This is another data set of the same source.
T12 sequence (Q96D31 other isoform, or with tags, fused parts or gaps): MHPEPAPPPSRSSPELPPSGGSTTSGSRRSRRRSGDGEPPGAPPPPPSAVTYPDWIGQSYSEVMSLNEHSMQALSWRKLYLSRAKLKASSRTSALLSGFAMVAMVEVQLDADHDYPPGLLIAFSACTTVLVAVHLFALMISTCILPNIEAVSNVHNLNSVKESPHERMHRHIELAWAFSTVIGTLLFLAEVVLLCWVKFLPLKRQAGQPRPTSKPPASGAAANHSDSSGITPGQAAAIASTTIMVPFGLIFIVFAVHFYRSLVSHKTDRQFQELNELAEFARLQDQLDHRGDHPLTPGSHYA

In test [15] the target is T13, hOrai1-mOrai1 ECL2 (RPTSKPPA) protein (human/mouse chimera, UniProt Q96D31 1-301).
T13 construct: also called Ch
Kind of test: FACS, 293EBNA, RFI-POC grade. The arrangement: concentration or dose not given beside the values.

For test [16], the target named is T14, mOrai1-hOrai1 ECL2 (…) protein (human/mouse chimera, UniProt Q8BWG9 1-304 (mouse entry)).
T14 construct: also called Ch
Description: FACS, 293EBNA transfectants [D00028 FIG. 16B]. An excerpt: (§3) FIG. 16A-D illustrates the results of FACS analysis showing binding to the indicated mOrai1-hOrai1 ECL2 chimeric mutants expressed on the surface of HEK-293-EBNA cells. Transfected cells were stained first with recombinant monoclonal antibodies then counter-stained with a secondary phycoerythrin-labeled goat (“Gt”) anti-human (“Hu”) IgG F(ab′)₂ antibody fragment and visualized using FACS. In FIG. 16B and FIG. 16D, The values of Relative Fluorescence Intensity as Percent of Control (RFI-POC) are calculated from the relative fluorescence intensity geometric mean (Geo Mean). The geometric mean is an average calculated by multiplying a series of numbers and taking the nth root where n is the number of numbers in the series. It is a statistical average of a set of transformed numbers often used to represent a central tendency in a highly variable data set that minimizes the effects of extreme values.
(§4) Table 11A and Table 11B feature a schematic representation of the POC data from FIG. 16B and FIG. 16D, respectively, where the binding results are recorded as (+++) denoting binding POC from 40% to 100%, (++) for POC of 5% to less than 40%, (+) for POC from 1% to less than 5% and (−) as lack of binding with POC less than 1%.

In test [17] the target is T15, mOrai1-hOrai1 ECL2 (AESVIV) protein (human/mouse chimera, UniProt Q8BWG9 1-304 (mouse entry)).
T15 construct: also called Ch
Kind of test: FACS, 293EBNA transfectants [D00028 FIG. 16B].
From the text: as §3, §4

T1 sequence (Q96D31 whole entry): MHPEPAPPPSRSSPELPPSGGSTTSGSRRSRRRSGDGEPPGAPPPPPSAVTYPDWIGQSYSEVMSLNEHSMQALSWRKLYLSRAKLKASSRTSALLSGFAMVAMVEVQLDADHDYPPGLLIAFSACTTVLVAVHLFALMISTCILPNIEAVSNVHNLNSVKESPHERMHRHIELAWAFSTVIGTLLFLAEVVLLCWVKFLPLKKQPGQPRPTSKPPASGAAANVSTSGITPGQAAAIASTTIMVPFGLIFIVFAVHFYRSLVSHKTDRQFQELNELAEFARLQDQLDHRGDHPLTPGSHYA
T5 sequence (Q96D31 other isoform, or with tags, fused parts or gaps): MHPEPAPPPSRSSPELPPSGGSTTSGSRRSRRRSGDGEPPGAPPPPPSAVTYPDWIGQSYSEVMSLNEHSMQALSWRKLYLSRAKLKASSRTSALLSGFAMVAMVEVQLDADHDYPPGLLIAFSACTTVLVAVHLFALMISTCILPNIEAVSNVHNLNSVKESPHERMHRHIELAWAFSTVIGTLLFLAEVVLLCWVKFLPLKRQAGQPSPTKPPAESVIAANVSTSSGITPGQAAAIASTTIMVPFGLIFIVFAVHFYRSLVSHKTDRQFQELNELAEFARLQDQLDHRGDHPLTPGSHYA
T8 sequence (Q96D31 other isoform, or with tags, fused parts or gaps): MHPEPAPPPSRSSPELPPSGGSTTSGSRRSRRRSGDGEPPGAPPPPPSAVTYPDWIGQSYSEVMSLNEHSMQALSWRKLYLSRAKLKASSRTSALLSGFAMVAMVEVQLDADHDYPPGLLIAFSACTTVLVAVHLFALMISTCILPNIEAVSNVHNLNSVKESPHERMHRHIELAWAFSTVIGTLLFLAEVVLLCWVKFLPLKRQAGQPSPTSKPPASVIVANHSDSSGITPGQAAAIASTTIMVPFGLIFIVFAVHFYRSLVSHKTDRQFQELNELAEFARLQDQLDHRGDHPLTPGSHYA
T2 sequence (Q96D31 other isoform, or with tags, fused parts or gaps mutant): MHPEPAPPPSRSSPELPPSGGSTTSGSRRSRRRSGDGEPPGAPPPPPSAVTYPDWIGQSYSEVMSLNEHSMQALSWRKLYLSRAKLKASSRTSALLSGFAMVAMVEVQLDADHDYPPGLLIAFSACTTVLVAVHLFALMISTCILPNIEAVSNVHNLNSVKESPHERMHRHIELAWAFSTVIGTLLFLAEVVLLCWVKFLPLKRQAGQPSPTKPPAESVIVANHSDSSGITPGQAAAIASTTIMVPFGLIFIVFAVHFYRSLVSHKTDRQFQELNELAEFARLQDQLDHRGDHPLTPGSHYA
T6 sequence (Q96D31 other isoform, or with tags, fused parts or gaps): as the sequence (Q96D31 other isoform, or with tags, fused parts or gaps mutant) above, with V219G, I220A, V221A counted along it
T4 sequence (Q96D31 other isoform, or with tags, fused parts or gaps): as the sequence (Q96D31 other isoform, or with tags, fused parts or gaps mutant) above, with A216P, E217A, V219G, I220A, V221A counted along it
T7 sequence (Q96D31 other isoform, or with tags, fused parts or gaps): as the sequence (Q96D31 other isoform, or with tags, fused parts or gaps mutant) above, with H224V, D226T counted along it
T15 sequence (Q8BWG9 other isoform, or with tags, fused parts or gaps): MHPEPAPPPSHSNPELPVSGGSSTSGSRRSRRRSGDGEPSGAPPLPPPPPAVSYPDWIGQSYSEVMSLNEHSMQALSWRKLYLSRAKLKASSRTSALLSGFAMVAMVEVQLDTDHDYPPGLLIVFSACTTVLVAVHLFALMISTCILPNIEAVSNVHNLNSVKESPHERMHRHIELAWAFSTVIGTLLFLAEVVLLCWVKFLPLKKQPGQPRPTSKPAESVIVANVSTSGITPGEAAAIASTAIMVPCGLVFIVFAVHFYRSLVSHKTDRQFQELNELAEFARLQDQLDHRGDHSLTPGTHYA
T14 sequence (Q8BWG9 other isoform, or with tags, fused parts or gaps): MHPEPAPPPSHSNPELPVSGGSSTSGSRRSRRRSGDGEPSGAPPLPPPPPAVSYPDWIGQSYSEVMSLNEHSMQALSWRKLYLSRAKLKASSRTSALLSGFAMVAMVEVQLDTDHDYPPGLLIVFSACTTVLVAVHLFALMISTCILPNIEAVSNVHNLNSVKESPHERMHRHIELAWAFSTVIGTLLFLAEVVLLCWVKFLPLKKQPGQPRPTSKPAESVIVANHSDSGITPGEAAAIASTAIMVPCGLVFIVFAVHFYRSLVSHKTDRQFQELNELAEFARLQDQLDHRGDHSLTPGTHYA
T9 sequence (Q8BWG9 other isoform, or with tags, fused parts or gaps mutant): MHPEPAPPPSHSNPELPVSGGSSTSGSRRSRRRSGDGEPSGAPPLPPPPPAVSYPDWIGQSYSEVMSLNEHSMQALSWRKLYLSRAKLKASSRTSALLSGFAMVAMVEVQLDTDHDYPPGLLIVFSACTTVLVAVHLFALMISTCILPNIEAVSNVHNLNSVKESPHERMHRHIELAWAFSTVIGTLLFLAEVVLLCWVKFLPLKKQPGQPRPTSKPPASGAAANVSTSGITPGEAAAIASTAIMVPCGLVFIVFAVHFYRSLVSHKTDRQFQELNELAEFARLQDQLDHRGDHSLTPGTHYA
T13 sequence (Q96D31 other isoform, or with tags, fused parts or gaps): as the sequence (Q96D31 other isoform, or with tags, fused parts or gaps mutant) above, with S210R, K213S, P214K, A216P, E217A counted along it

B1: mAb 5A4.2 (antibody, human IgG2, lambda, V domains shown)
VH: QVQLVQSGAEVKKPGASVKVSCKASGYTFTDYYMNWVRQAPGQGLEWMGWINPNSGGTKYAQKFQGRVTMTRDTSIRTAYMELSRLRSDDTAVYYCSREYGGNSDWFDPWGQGTLVTVSS
VL: QSVLTQPPSVSGAPGQRVTISCTGSSSNIGAGYDVHWYQQLPGTAPKLLIYGNSNRPSGVPDRFSGSKSGTSASLAITGLQAEDEADYYCQSYDNRLSDSVVIGGGTKLTVQG
notes: fully human IgG2 lambda, Campaign 2
B1: in the test with human Orai1 [1], the “IC50 IFN-γ, whole blood Donor A, recombinant mAb” value came to 0.59 nM; the “IC50 IFN-γ, whole blood Donor B, recombinant mAb” value stood at 3.59 nM; the “IC50 IL-2, whole blood Donor A, recombinant mAb” value came to 1.42 nM; the “IC50 IL-2, whole blood Donor B, recombinant mAb” value came to 0.87 nM.

B2: mAb 5B1.1 (antibody, human IgG2, lambda, V domains shown)
VH: QVQLVQSGAEVKKPGASVKVSCKASGYTFTDYYINWVRQAPGQGLEWMGWINPNSGGSSYAQKFQGRVTMTRDTSISTAHMELIRLRSDDTAVYYCARERGGIEDWFDPWGQGTLVTVSS
VL: QSVLTQPPSVSGAPGQRVTISCTGSSSNIGAGYDVHWYQQLPGTAPKLLIYGNSNRPSGVPDRFSGSKSGTSASLAITKFQAEDEAVYYCQSYGSGLSGVVFGGGTKLTVLG
notes: fully human IgG2 lambda, Campaign 2; also called mAb 5Bl1.1
For the molecule B2, in the test with human Orai1 [1], the “IC50 IFN-γ, whole blood Donor A, recombinant mAb” value amounted to 0.52 nM; the “IC50 IFN-γ, whole blood Donor B, recombinant mAb” value turned out to be 34.8 nM; the “IC50 IL-2, whole blood Donor A, recombinant mAb” value amounted to 2.08 nM; the “IC50 IL-2, whole blood Donor B, recombinant mAb” value stood at 9.52 nM.

B3: mAb 5F2.1 (antibody, human IgG2, lambda, V domains shown)
VH: QVQLVQSGAEVKKPGASVKVSCKASGYTFTDYYMNWVRQAPGQGLEWMGWINPNSGGTHYAQKFQGRVTMTRDTSISTAYMELSRLRSDDTAVYYCAREYGGYSDWFDPWGQGTLVTVSS
VL: QSVLTQPPSVSGAPGQRVTISCTGSRSNIGAGYDVHWYQQLPRTAPKLLIYDNSNRPSGVPDRFSGSKSGSSASLAITGLQAEDEADYYCQSYDNSLSDSVLIGGGTKLTVLG
notes: as for B1
For the molecule B3, in the test with human Orai1 [1], the “IC50 IFN-γ, whole blood Donor A, recombinant mAb” value is 11.1 nM; the “IC50 IFN-γ, whole blood Donor B, recombinant mAb” value turned out to be 9.84 nM; the “IC50 IL-2, whole blood Donor A, recombinant mAb” value is 2.42 nM; the “IC50 IL-2, whole blood Donor B, recombinant mAb” value turned out to be 2.43 nM.

B4: mAb 2B4.1 (antibody, human IgG2, lambda, V domains shown)
VH: QVQLVQSGAEVKKPGASVKVSCKASGYTFTDYYMHWVRQAPGQGLEWMGWINPNSGGTNYVQKFQDRVTMTRDTSITTAYMELTRLRSDDTAVYYCAREEGDYGMDVWGQGTTVTVSS
VL: QSVLTQPPSVSGAPGQRVTISCTGSNSNIGTGYDVHWYQKLPGTAPRLLIYSHFNRPSGVPDRFSGSTSGTSASLAITGLQAEDEADYYCQSYDSSLSGSVFGGGTKLTVLG
With B4, the “percent of control (POC) of FACS Geo Mean” value (“percent of control” below) in test [2], in [3], in test [4], in test [5], in [6] and in test [7] was less than 1% throughout. In addition, the “percent of control” value in test [9] was in the range of 1 to 5%. Moreover, the “IC50, NFAT-mediated luciferase assay (FIG. 6C)” value with human Orai1 [8] is 1800 nM.

B5: mAb 2C1.1 (antibody, human IgG2, lambda, V domains shown)
VH: QVQLQQWGAGLLKPSETLSLTCAVYGGSFSGYYWSWIRQPPGKGLEWIGEIDHSGSTNYNPALKSRLTISVDTSKNQFSLKLSSVTAADTAVYYCARAGSGGYEDWFDPWGQGTLVTVSS
VL: QSVLTQPPSVSGAPGQRVTISCTGSSSNIGAGYNVHWYQQFPRTDPKLLIYVYNIRPSGVPDRFSGSRSGTSASLAITGLQTEDEADYYCQSYDSSLSGVVFGGGTKLTVLG
notes: fully human IgG2 lambda, Campaign 1; tested hybridoma-purified and recombinant; also called anti-hOrai1 mAb 2C1.1
As for B5, the “percent of control” value in test [2], in [3], in test [4], in [5], in test [6] and in [7] was less than 1% in each case. The “percent of control” value is 40 to 100% in test [11]; 40 to 100% in [12]; 40 to 100% in test [13]; 40 to 100% in [14]; 40 to 100% in test [15]; 5 to 40% in test [9]. The “IC50, NFAT-mediated luciferase assay (FIG. 6B)” value in the test with human Orai1 [8] worked out at 4.4 nM. Besides, the “IC50, NFAT-mediated luciferase assay (FIG. 6C)” value in the test with human Orai1 [8] was 1.8 nM. Also, the “IC50 of ICRAC current block, whole-cell patch clamp, HEK-293/hOrai1/hSTIM1 BB6.3” value with human Orai1 [8] is 55.9 nM. The “IC50 IFN-γ, whole blood Donor A” value with human Orai1 [10] worked out at 17.1 nM. Also, in the test with human Orai1 [10], the “IC50 IFN-γ, whole blood Donor B” value worked out at 2.67 nM. The “IC50 IL-2, whole blood Donor A” value with human Orai1 [10] is 5.23 nM. In addition, the “IC50 IL-2, whole blood Donor B” value in the test with human Orai1 [10] is 1.44 nM. Further, the binding result in test [16] and in test [17] was “binds” each time.

B6: mAb 5F7.1 (antibody, human IgG2, lambda)
heavy: QVQLVQSGAEVKKPGASVKVPCKASGYTFTDYYINWVRQAPGQGLEWMGWINPNNGGTNYAQKFQGRVTMTRDTSISTAYMELRRLRSDDTAVYYCARERGGYEDWFDPWGQGTLVTVSSASTKGPSVFPLAPCSRSTSESTAALGCLVKDYFPEPVTVSWNSGALTSGVHTFPAVLQSSGLYSLSSVVTVPSSNFGTQTYTCNVDHKPSNTKVDKTVERKCCVECPPCPAPPVAGPSVFLFPPKPKDTLMISRTPEVTCVVVDVSHEDPEVQFNWYVDGVEVHNAKTKPREEQFNSTFRVVSVLTVVHQDWLNGKEYKCKVSNKGLPAPIEKTISKTKGQPREPQVYTLPPSREEMTKNQVSLTCLVKGFYPSDIAVEWESNGQPENNYKTTPPMLDSDGSFFLYSKLTVDKSRWQQGNVFSCSVMHEALHNHYTQKSLSLSPGK
light: QSVLTQPPSVSGAPGQRVTISCTGSSSNIGAGFDVHWYQQLPVTAPKLLIYGNRNRPSGVPARFSGSKSGTSASLAITGLQAEDEAVYYCQSYDSSLTVFGGGTKLTVLGQPKANPTVTLFPPSSEELQANKATLVCLISDFYPGAVTVAWKADGSPVKAGVETTKPSKQSNNKYAASSYLSLTPEQWKSHRSYSCQVTHEGSTVEKTVAPTECS
notes: as for B1
Regarding B6, in the test with human Orai1 [1], the “IC50 IFN-γ, whole blood Donor A, recombinant mAb” value amounted to 0.28 nM; the “IC50 IFN-γ, whole blood Donor B, recombinant mAb” value is 10.7 nM; the “IC50 IL-2, whole blood Donor A, recombinant mAb” value was found to be 1.32 nM; the “IC50 IL-2, whole blood Donor B, recombinant mAb” value worked out at 2.52 nM.
